Earlier results on one substance are cited in publication PMC8330535.

For the data set, the target named is ARNT PAS-B (Homo sapiens) (UniProt P27540). As to conditions: cited from earlier work.
Sequence of ARNT PAS-B (Homo sapiens) (P27540 356-470): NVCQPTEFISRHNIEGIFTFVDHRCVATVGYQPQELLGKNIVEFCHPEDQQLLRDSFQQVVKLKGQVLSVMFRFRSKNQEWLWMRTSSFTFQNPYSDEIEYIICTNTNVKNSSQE

Sequence of HIF-1α PAS-B (Q16665 238-349): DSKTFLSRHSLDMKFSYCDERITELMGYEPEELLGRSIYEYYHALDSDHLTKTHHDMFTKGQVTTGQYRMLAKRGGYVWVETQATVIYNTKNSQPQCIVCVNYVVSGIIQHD

In general, Kd refers to a measure of binding affinity in units of concentration. On to HIF-1α PAS-B (from UniProt Q16665), for which the Kd is 125 nM.
